What was measured:
[1] = test system: FITC-NFP2 nanofiber peptide construct, mPEG2000-KLDLKLDLKLDLK(FITC)
[2] = test system: DM1-MCC-NFP2 (DM1-loaded NFP2 nanofiber)
[3] = test system: FITC-NFP1 nanofiber peptide construct, mPEG2000-KKKKKKKLDLKLDLKLDLK(FITC)
[4] = test system: DM1-MCC-NFP1 (DM1-loaded NFP1 nanofiber)
[5] = test system: Cy5.5-NFP1 nanofiber peptide construct, mPEG2000-KKKKKKKLDLKLDLKLDLK-Cy5.5
[6] = test system: Cy5.5-NFP2 nanofiber peptide construct, mPEG2000 KLDLKLDLKLDLK-Cy5.5

Cathepsin B (CathB), purified from bovine spleen (EMD Millipore)
HPLC of nanofibers after 24 h CathB digestion (enzyme cleavage) [1]: only one fragment was identified when FITC-NFP2 was subjected to CathB digestion
drug metabolites after CathB digestion (HPLC, MALDI-TOF) [2]: For DM1-MCC-NFP2, no drug metabolite was identified during CathB digestion due to its slow release property
HPLC of nanofibers after 24 h CathB digestion (enzyme cleavage) [3]: CathB digested FITC-NFP1 into multiple peptide fragments after 24 hours
drug metabolites after CathB digestion (HPLC, MALDI-TOF) [4]: After CathB digestion, Lys-MCC-DM1 ... was identified in DM1-MCC-NFP1
fluorescence recovery after CathB activation [5]: CathB digestion of Cy5.5-NFP1 led to the release of Cy5.5-peptide fragments, thus resulting in the recovery of the fluorescence signal
fluorescence recovery after CathB activation [6]: the fluorescence of Cy5.5-NFP2 was only slightly increased after exposure to CathB

— patent US20200108156
